Consider 2 molecules from PMC6547417.

Like-named read-outs stand apart in the source and are kept apart here.

Common to all, as to test: EMSA
One data set deals with CST (CTC1-STN1-TEN1) (human, UniProt Q2NKJ3;Q9H668;Q86WV5 1-1217;1-368;1-123).
The target of data set [1] is T1, RPA (UniProt P27694;P15927;P35244 1-616;1-270;1-121).
For data set [2], the target named is T1, RPA. This is another data set of the same source.

T1 sequence (P27694 whole entry, chain 1 of 3): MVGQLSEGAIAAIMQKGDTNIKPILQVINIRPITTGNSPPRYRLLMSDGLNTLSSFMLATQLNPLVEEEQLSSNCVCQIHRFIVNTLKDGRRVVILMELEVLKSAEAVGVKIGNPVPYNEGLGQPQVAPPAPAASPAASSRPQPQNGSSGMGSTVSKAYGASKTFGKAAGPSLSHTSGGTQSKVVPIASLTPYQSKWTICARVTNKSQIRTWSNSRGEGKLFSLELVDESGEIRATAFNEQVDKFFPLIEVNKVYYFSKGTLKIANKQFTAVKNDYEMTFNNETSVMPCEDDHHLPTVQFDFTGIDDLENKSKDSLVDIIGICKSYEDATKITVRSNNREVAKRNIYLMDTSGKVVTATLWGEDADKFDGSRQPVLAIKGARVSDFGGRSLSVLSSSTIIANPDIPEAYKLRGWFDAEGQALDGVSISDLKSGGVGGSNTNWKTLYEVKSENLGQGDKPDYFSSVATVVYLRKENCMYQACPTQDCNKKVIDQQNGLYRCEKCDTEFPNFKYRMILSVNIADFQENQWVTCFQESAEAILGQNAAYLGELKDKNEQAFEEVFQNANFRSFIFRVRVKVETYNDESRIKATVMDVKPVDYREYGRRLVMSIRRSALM
T1 sequence (P15927 whole entry, chain 2 of 3): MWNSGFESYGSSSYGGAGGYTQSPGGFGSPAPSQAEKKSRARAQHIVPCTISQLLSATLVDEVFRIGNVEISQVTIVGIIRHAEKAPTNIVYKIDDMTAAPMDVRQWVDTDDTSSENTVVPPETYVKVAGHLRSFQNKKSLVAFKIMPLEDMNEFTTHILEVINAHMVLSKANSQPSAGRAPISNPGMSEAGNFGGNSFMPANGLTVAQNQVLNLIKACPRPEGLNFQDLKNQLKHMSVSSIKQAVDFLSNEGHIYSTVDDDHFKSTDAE
T1 sequence (P35244 whole entry, chain 3 of 3): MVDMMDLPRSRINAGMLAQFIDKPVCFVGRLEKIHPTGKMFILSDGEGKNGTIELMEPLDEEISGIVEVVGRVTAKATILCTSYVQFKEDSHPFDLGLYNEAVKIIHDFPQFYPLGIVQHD
Sequence of CST (CTC1-STN1-TEN1) (Q2NKJ3 whole entry, chain 1 of 3): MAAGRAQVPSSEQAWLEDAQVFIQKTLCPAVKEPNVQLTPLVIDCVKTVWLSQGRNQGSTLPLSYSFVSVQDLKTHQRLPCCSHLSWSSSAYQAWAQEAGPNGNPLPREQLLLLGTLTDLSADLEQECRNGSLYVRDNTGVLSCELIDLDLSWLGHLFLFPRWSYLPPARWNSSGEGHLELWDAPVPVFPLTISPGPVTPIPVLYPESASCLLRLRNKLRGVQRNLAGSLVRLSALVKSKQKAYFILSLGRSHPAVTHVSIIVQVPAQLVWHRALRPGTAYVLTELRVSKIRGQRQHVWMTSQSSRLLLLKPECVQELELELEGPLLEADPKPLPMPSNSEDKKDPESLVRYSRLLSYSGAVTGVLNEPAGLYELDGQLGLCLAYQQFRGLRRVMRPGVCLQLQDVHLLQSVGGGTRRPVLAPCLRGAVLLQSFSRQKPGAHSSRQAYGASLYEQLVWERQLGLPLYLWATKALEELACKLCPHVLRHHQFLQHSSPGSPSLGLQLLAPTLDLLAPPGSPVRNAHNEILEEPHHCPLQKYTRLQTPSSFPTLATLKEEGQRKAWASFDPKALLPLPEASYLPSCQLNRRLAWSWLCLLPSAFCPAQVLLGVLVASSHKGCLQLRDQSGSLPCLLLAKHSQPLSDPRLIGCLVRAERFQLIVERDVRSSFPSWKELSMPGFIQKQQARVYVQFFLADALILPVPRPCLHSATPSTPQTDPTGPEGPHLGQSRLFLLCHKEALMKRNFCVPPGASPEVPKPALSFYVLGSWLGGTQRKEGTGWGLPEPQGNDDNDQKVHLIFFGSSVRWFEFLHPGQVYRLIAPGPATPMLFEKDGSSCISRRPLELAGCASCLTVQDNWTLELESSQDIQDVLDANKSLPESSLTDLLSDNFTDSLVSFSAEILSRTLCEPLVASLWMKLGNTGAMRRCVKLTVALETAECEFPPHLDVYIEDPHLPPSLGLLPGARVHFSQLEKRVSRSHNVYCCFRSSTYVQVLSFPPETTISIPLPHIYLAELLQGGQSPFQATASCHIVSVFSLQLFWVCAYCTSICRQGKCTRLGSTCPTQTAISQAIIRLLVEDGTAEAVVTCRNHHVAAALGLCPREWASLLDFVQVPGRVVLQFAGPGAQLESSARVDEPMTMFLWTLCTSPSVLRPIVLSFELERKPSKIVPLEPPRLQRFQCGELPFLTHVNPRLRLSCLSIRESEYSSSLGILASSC
Sequence of CST (CTC1-STN1-TEN1) (Q9H668 whole entry, chain 2 of 3): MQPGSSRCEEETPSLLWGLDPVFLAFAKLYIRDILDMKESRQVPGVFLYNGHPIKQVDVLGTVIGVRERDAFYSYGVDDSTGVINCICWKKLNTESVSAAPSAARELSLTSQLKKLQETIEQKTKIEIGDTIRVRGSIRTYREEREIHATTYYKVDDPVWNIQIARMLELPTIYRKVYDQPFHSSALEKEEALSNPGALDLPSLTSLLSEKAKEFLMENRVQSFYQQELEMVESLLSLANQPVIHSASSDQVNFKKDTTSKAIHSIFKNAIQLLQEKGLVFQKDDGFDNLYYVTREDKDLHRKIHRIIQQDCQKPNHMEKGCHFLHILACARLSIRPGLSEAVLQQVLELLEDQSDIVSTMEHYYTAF
Sequence of CST (CTC1-STN1-TEN1) (Q86WV5 whole entry, chain 3 of 3): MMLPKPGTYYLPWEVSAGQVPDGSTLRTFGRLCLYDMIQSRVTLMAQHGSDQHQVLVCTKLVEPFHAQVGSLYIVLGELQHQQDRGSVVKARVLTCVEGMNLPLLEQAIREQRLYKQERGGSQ

B1: Tel21 (ssDNA)
DNA: GGGTTAGGGTTAGGGTTAGGG
As usually defined, the Kd is the free concentration of one partner at which half of the binding sites on the other are occupied at equilibrium, for simple one-to-one binding. Lower therefore signals higher affinity. On to B1, for which the Kd with CST (CTC1-STN1-TEN1) was found to be 1.3 nM; with RPA [1] it was 1.9 nM.

B2: Tel21 G4 (structured_DNA)
DNA: GGGTTAGGGTTAGGGTTAGGG
With B2, binding with RPA [2] was characterised by a dissociation constant (Kd) of 5.5 nM.
